B1: F1*; the commonest letter at each place (parent)
chain: GAGACCGCAACTGAAAAGTTGTTATCACTTGTCGTAAGACACTTTGGATGGGTTGAAGTTCTGCACGTAGAAGCAAAAGGC

The variants in this series derive from B1. In words: fraction ligated after 30 min (ligated reads / total reads); higher = more ligase activity. The note with it: with F1*sub RNA substrate (template-directed ligation), 42 °C. The essentials:
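The ligase ribozyme variants were produced by PCR amplification of oligo-pool templates, T7 transcription and purification on gel. Their ligated and unligated forms were gel-separated, then reverse transcribed with barcoded primers before MiSeq sequencing. Core bases were filtered at a quality of ≥20, and fraction ligated per variant was ligated reads over total reads.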
For the variant GAGACCGCAACTGAAAAGTTGTTATTACTTGTCGTCAGACACTTTGGATGGGTTGAAGTTCTGCACGTAGAAGCAAAAGGC, the fraction ligated was 0.788.

For GAGACCGCAACTGAAAAGTTGTTATTACTTGTCGTTAGACACTTTGGATGGGTTGAAGTTCTGCACGTAGAAGCAAAAGGC, the fraction ligated was found to be 0.827.

Take GAGACCGCAACTGAAAAGTTGTTATTACTTGTCGTGAGACACTTTGGATGGGTTGAAGTTCTGCACGTAGAAGCAAAAGGC: the fraction ligated came out at 0.828.

Take GAGACCGCAACTGAAAAGTTGTTATTACTTGTCGTAAGACACTTTGGTTGGGTTGAAGTTCTGCACGTAGAAGCAAAAGGC: the fraction ligated was found to be 0.0105.

GAGACCGCAACTGAAAAGTTGTTATTACTTGTCGTAAGACACTTTGGGTGGGTTGAAGTTCTGCACGTAGAAGCAAAAGGC: the fraction ligated was 0.756.

In the case of GAGACCGCAACTGAAAAGTTGTTATTACTTGTCGTAAGACACTTTGGCTGGGTTGAAGTTCTGCACGTAGAAGCAAAAGGC, the fraction ligated was found to be 0.418.

Take GAGACCGCAACTGAAAAGTTGTTATTACTTGTCGTAAGTCACTTTGGATGGGTTGAAGTTCTGCACGTAGAAGCAAAAGGC: the fraction ligated came out at 0.823.

Regarding GAGACCGCAACTGAAAAGTTGTTATTACTTGTCGTAAGGCACTTTGGATGGGTTGAAGTTCTGCACGTAGAAGCAAAAGGC, the fraction ligated was 0.819.

As to GAGACCGCAACTGAAAAGTTGTTATTACTTGTCGTAAGCCACTTTGGATGGGTTGAAGTTCTGCACGTAGAAGCAAAAGGC, the fraction ligated worked out at 0.789.

Regarding GAGACCGCAACTGAAAAGTTGTTATGACTTGTCGTAAGACACTTTGGATTGGTTGAAGTTCTGCACGTAGAAGCAAAAGGC, the fraction ligated is 0.0691.

In the case of GAGACCGCAACTGAAAAGTTGTTATGACTTGTCGTAAGACACTTTGGATAGGTTGAAGTTCTGCACGTAGAAGCAAAAGGC, the fraction ligated was 0.0221.

As to GAGACCGCAACTGAAAAGTTGTTATGACTTGTCGTAAGACACTTTGGATCGGTTGAAGTTCTGCACGTAGAAGCAAAAGGC, the fraction ligated was determined as 0.0252.

In the case of GAGACCGCAACTGAAAAGTTGTTATTGCTTGTCGTAAGACACTTTGGATGGGTTGAAGTTCTGCACGTAGAAGCAAAAGGC, the fraction ligated worked out at 0.771.

As to GAGACCGCAACTGAAAAGTTGTTATTCCTTGTCGTAAGACACTTTGGATGGGTTGAAGTTCTGCACGTAGAAGCAAAAGGC, the fraction ligated was 0.811.

For GAGACCGCAACTGAAAAGTTGTTATTTCTTGTCGTAAGACACTTTGGATGGGTTGAAGTTCTGCACGTAGAAGCAAAAGGC, the fraction ligated was 0.808.

Turning to GAGACCGCAACTGAAAAGTTGTTATGACTTGTCGTAAGACACTTAGGATGGGTTGAAGTTCTGCACGTAGAAGCAAAAGGC, the fraction ligated was found to be 0.0653.

As to GAGACCGCAACTGAAAAGTTGTTATGACTTGTCGTAAGACACTTGGGATGGGTTGAAGTTCTGCACGTAGAAGCAAAAGGC, the fraction ligated was determined as 0.0236.

Take GAGACCGCAACTGAAAAGTTGTTATGACTTGTCGTAAGACACTTCGGATGGGTTGAAGTTCTGCACGTAGAAGCAAAAGGC: the fraction ligated came out at 0.00783.

For the variant GAGACCGCAACTGAAAAGTTGTTATTACTTGTCGTAAGACGCTTTGGATGGGTTGAAGTTCTGCACGTAGAAGCAAAAGGC, the fraction ligated came out at 0.813.

In the case of GAGACCGCAACTGAAAAGTTGTTATTACTTGTCGTAAGACTCTTTGGATGGGTTGAAGTTCTGCACGTAGAAGCAAAAGGC, the fraction ligated stood at 0.796.

Take GAGACCGCAACTGAAAAGTTGTTATTACTTGTCGTAAGACCCTTTGGATGGGTTGAAGTTCTGCACGTAGAAGCAAAAGGC: the fraction ligated came to 0.771.

In the case of GAGACCGCAACTGAAAAGTTGTTATGACTTGACGTAAGACACTTTGGATGGGTTGAAGTTCTGCACGTAGAAGCAAAAGGC, the fraction ligated turned out to be 0.238.

In the case of GAGACCGCAACTGAAAAGTTGTTATGACTTGGCGTAAGACACTTTGGATGGGTTGAAGTTCTGCACGTAGAAGCAAAAGGC, the fraction ligated was determined as 0.125.

GAGACCGCAACTGAAAAGTTGTTATGACTTGCCGTAAGACACTTTGGATGGGTTGAAGTTCTGCACGTAGAAGCAAAAGGC: the fraction ligated turned out to be 0.245.

As to GAGACCGCAACTGAAAAGTTGTTATGACTTGTCGTAAGACACTGTGGATGGGTTGAAGTTCTGCACGTAGAAGCAAAAGGC, the fraction ligated was 0.776.

In the case of GAGACCGCAACTGAAAAGTTGTTATGACTTGTCGTAAGACACTATGGATGGGTTGAAGTTCTGCACGTAGAAGCAAAAGGC, the fraction ligated was determined as 0.781.

For the variant GAGACCGCAACTGAAAAGTTGTTATGACTTGTCGTAAGACACTCTGGATGGGTTGAAGTTCTGCACGTAGAAGCAAAAGGC, the fraction ligated was found to be 0.731.

Consider GAGACCGCAACTGAAAAGTTGTTATTACTTGTCGTACGACACTTTGGATGGGTTGAAGTTCTGCACGTAGAAGCAAAAGGC, for which the fraction ligated turned out to be 0.841.

For GAGACCGCAACTGAAAAGTTGTTATTACTTGTCGTAGGACACTTTGGATGGGTTGAAGTTCTGCACGTAGAAGCAAAAGGC, the fraction ligated came out at 0.841.

As for GAGACCGCAACTGAAAAGTTGTTATTACTTGTCGTATGACACTTTGGATGGGTTGAAGTTCTGCACGTAGAAGCAAAAGGC, the fraction ligated turned out to be 0.853.

Turning to GAGACCGCAACTGAAAAGTTGTTATGACTGGTCGTAAGACACTTTGGATGGGTTGAAGTTCTGCACGTAGAAGCAAAAGGC, the fraction ligated was found to be 0.757.

With GAGACCGCAACTGAAAAGTTGTTATGACTCGTCGTAAGACACTTTGGATGGGTTGAAGTTCTGCACGTAGAAGCAAAAGGC, the fraction ligated worked out at 0.676.

Take GAGACCGCAACTGAAAAGTTGTTATGACTAGTCGTAAGACACTTTGGATGGGTTGAAGTTCTGCACGTAGAAGCAAAAGGC: the fraction ligated was 0.8.

For the variant GAGACCGCAACTGAAAAGTTGTTATGACTTGTCGTAACACACTTTGGATGGGTTGAAGTTCTGCACGTAGAAGCAAAAGGC, the fraction ligated was 0.00552.

The values are drawn from the supplement of paper PMC6755084.
